{"source": "paper PMC10817852", "about": "“Vascular injury activates the ELK1/SND1/SRF pathway to promote vascular smooth muscle cell proliferative phenotype and neointimal hyperplasia”", "key": {"[1]": {"molecular_target": "T1, SND1 (1-660) (UniProt Q78PY7 1-660)", "T1 sequence": "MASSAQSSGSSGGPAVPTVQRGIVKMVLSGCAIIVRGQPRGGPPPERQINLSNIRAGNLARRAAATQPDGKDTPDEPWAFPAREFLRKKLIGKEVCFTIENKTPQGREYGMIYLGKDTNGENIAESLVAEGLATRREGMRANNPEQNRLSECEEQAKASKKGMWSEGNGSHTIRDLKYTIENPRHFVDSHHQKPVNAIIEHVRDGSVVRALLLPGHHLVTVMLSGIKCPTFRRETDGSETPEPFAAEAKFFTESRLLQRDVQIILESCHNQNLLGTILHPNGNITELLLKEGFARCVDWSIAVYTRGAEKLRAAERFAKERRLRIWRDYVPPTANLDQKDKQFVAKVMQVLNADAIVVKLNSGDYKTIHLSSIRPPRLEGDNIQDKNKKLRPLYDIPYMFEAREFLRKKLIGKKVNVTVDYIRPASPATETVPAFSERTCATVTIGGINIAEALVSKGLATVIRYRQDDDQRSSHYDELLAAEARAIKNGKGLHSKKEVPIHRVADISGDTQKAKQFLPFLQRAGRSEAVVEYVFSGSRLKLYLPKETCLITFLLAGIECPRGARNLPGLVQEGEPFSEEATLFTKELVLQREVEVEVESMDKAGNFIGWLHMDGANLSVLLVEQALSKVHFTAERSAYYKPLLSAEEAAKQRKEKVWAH", "experiment": "EMSA; SND1 alone; Beyotime GS009 chemiluminescent EMSA kit binding buffer (composition, salt and pH not given), 20 fmol biotin probe, 0.1 ug protein, 10 min at room temperature", "settings": "protein: recombinant; label: biotin; blunt"}, "[2]": {"molecular_target": "T2, SRF (1-266) (UniProt P11831 1-266)", "T2 sequence": "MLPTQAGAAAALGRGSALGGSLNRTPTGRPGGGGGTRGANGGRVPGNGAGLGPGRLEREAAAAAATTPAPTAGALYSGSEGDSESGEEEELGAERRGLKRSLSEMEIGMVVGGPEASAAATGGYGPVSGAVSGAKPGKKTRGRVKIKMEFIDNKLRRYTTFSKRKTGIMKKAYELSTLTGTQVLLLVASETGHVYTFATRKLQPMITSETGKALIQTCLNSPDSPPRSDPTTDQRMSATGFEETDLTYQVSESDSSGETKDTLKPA", "experiment": "EMSA; unlabeled probe (200-fold) diminished binding; Beyotime GS009 chemiluminescent EMSA kit binding buffer (composition, salt and pH not given), 20 fmol biotin probe, 0.1 ug protein, 10 min at room temperature", "settings": "protein: recombinant; (GST fusions described); chain copies: 2; label: biotin; blunt"}}, "data": [{"binder": "Fos CArG probe (dsDNA) DNA 1: CCATATTAGGCCATATTAGGCCATATTAGGCCATATTAGGCCATATTAGG DNA 2: CCTAATATGGCCTAATATGGCCTAATATGGCCTAATATGGCCTAATATGG", "values": [{"measurement": "binding result", "setting": "[1]", "value": "no binding"}, {"measurement": "binding result", "setting": "[2]", "value": "binds"}]}]}
